The record followed here is patent US7727960B2, “C5a receptor antagonists” (Jerini AG, priority 2003, dated 2010).

This assay concerns the target T1, human C5aR (CD88) (human, UniProt P21730 1-350).
T1 sequence (looked up): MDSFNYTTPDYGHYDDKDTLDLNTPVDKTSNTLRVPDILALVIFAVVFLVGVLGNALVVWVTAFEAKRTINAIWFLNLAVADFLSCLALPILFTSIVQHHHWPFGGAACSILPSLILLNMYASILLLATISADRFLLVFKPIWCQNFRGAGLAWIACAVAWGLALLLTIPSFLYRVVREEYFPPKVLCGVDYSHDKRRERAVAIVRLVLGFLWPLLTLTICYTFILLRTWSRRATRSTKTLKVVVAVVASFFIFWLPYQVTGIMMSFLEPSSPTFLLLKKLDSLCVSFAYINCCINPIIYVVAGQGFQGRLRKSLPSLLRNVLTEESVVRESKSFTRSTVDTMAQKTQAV
Description: cell-based or functional assay.
Ac-Phe-[Orn-Hyp-hle-Mcf-Phe] (peptide) had an IC50 activity group, enzyme release assay below 200 nM.

In turn, Ac-Phe-[Orn-Hyp-hle-Pff-Nle] (peptide) came in with an IC50 activity group, enzyme release assay below 200 nM.

Ac-Phe-[Orn-Hyp-hle-Pff-Phe] (peptide) came in with an IC50 activity group, enzyme release assay below 200 nM.

As to Ac-Phe-[Orn-Hyp-hle-Trp-Phe] (peptide), the IC50 activity group, enzyme release assay is below 50 nM.

Ac-Phe-[Orn-NMD-cha-Trp-Nle] (peptide) showed an IC50 activity group, enzyme release assay below 200 nM.

The substance “Ac-Phe-[Orn-NMeAla-cha-Trp-Arg] (peptide)” registered an IC50, functional assay of 25 nM and an IC50 activity group, enzyme release assay below 50 nM.

On to Ac-Phe-[Orn-Pip-hle-Bta-Phe] (peptide), for which the IC50 activity group, enzyme release assay was below 200 nM.

As to Ac-Phe-[Orn-Pro-cha-Pff-Nle] (peptide), the IC50 activity group, enzyme release assay is below 200 nM.

On to Ac-Phe-[Orn-Pro-cha-Pff-Phe] (peptide), for which the IC50 activity group, enzyme release assay is below 200 nM.

The substance Ac-Phe-[Orn-Pro-hle-Bta-Nle] (peptide) returned an IC50 activity group, enzyme release assay below 200 nM.

With Ac-Phe-[Orn-Pro-hle-Bta-Phe] (peptide), the IC50 activity group, enzyme release assay was below 200 nM.

Substance Ac-Phe-[Orn-Pro-hle-Pff-Phe] (peptide) registered an IC50 activity group, enzyme release assay below 200 nM.

As for Ac-Phe-[Orn-Ser-cha-Trp-Nle] (peptide), the IC50 activity group, enzyme release assay was below 200 nM.

On to Ac-Phe-[Orn-Ser-hle-Trp-Nle] (peptide), for which the IC50 activity group, enzyme release assay was below 200 nM.

As to Ac-Phe-[Orn-Thr-cha-Trp-Nle] (peptide), the IC50 activity group, enzyme release assay is below 200 nM.

Substance Ac-Phe-[Orn-Tic-cha-Trp-Nle] (peptide) displayed an IC50 activity group, enzyme release assay below 200 nM.

In turn, “Ac-Phg-Orn-Pro-cha-Bta-Phe-NH2 (peptide)” registered an IC50 activity group, enzyme release assay below 200 nM.

Consider “Ac-Ser-Phe-Orn-Aze-cha-Bta-Phe-NH2 (peptide)”, for which the IC50 activity group, enzyme release assay is below 20 nM.

Substance “Ac-Thi-Orn-Aze-cha-Bta-Phe-NH2 (peptide)” came in with an IC50 activity group, enzyme release assay below 20 nM.

“Ac-Thi-Orn-Pip-cha-Bta-Phe-NH2 (peptide)” yielded an EC50, agonistic activity, enzyme release assay above 100000 nM and an IC50 activity group, enzyme release assay below 50 nM.

With “Ac-Thi-Orn-Pro-cha-Bta-Phe-NH2 (peptide)”, the IC50 activity group, enzyme release assay is below 50 nM.

The substance “Ac-Thi-Orn-Pro-cha-Bta-Thi-NH2 (peptide)” showed an IC50 activity group, enzyme release assay below 50 nM.

Substance “Ac-Thi-Orn-Pro-cha-Trp-Phe-NH2 (peptide)” gave an IC50 activity group, enzyme release assay below 200 nM.

Ac-Thi-[Orn-Pro-hle-Bta-Phe] (peptide) gave an IC50 activity group, enzyme release assay below 200 nM.

Take “Ac-Thr-Phe-Orn-Aze-cha-Bta-Phe-NH2 (peptide)”: the IC50 activity group, enzyme release assay was below 50 nM.

Bzl-[Orn-Pro-cha-Bta-Nle] (peptide): the IC50 activity group, enzyme release assay is below 200 nM.

For the substance “CH3-SO2-Phe-Orn-Aze-cha-Bta-Phe-NH2 (peptide)”, the IC50 activity group, enzyme release assay was below 50 nM.

For the substance “CH3CH2CO-Phe-Orn-Pro-cha-Bta-Phe-NH2 (peptide)”, the IC50 activity group, enzyme release assay was below 50 nM.

In the case of “FAc-Phe-Orn-Aze-cha-Bta-Phe-NH2 (peptide)”, the IC50 activity group, enzyme release assay is below 50 nM.

Substance “FAc-Phe-Orn-Pro-cha-Bta-Phe-NH2 (peptide)” yielded an IC50 activity group, enzyme release assay below 50 nM.

“FH2C-CO-Phe-Orn-Pro-cha-Bta-Phe-NH2 (peptide)” showed an IC50 activity group, enzyme release assay below 50 nM.

The substance “H2N-CO-Phe-Orn-Pro-cha-Bta-Phe-NH2 (peptide)” had an IC50 activity group, enzyme release assay below 50 nM.

Turning to “H-Bal-Phe-[Orn-Hyp-hle-Trp-Nle] (peptide)”, the IC50 activity group, enzyme release assay is below 200 nM.

Substance “H-Bal-Phe-[Orn-Pro-hle-Pff-Nle] (peptide)” displayed an IC50 activity group, enzyme release assay below 200 nM.

As to “H-Nip-Phe-Cit-Pro-hle-Bta-Phe-NH2 (peptide)”, the IC50 activity group, enzyme release assay is below 200 nM.
